Data on 2 molecules can be found in patent publication US20230167185A1.

For test [1], the target named is UU24 (Clostridium tetani (tetanus toxin)).
Test [2] concerns the target UU70 (Clostridium tetani (tetanus toxin)).
For test [3], the target named is UU71 (Clostridium tetani (tetanus toxin)).
Test [4] concerns the target UU72 (Clostridium tetani (tetanus toxin)).
The target of test [5] is UU73 (Clostridium tetani (tetanus toxin)).
In test [6] the target is UU74 (Clostridium tetani (tetanus toxin)).

B1: 14GIIICII scFv (scFv)
scFv: QVQLQQPGAELVMPGASVNLSCKASGYTFTDYWMHWVKQRPGQGLEWIGEIDPSDNFSNLNQNFRGKATLTVDKSSRTAFLQLSSLTSEDSAVYYCAVEDYWGQGTTLTVSSGGGGSGGGGSGGGGSGGGGSDIVMTQATPSVLVTPGEAVSISCRASRSLLHSNGITYLYWFLQRPGQSPQVLIYRMSNLVSGVPDRFSGSGSGTAFTLRISRVEAEDVGVYYCMQHLEFPYTFGGGTKLEIK
Take B1: the dissociation constant (Kd) amounted to 300 pM in test [1]; 290 pM in test [2]; 600 pM in test [3]; 600 pM in test [4]; 870 pM in test [5]; 1700 pM in test [6]. Further, the koff in test [1] came to 0.0002 s⁻¹; in test [2] it was 0.00019 s⁻¹; in test [3], 0.00032 s⁻¹; in test [4], 0.00034 s⁻¹; in test [5] it was 0.00044 s⁻¹; in test [6], 0.00095 s⁻¹. In addition, the kon in test [1] is 660000 M⁻¹ s⁻¹; in test [2], 650000 M⁻¹ s⁻¹; in test [3], 540000 M⁻¹ s⁻¹; in test [4] it was 570000 M⁻¹ s⁻¹; in test [5] it was 510000 M⁻¹ s⁻¹; in test [6], 570000 M⁻¹ s⁻¹.

B2: IBIIICI scFv (scFv)
scFv: EVRLLQSGAALVRPGASVKLSCTASGFNIKDFNIHWVKQRPEQGLEWIGRIDPENGDAEYVPKFQVRATMTTDTSSNTVYLHLSSLTSGDTAVYYCTTGSYDLDVEYWGQGTTLTVSSGGGGSGGGGSGGGGSGGGGSELQMTQSPSSLSASLGDTVTITCHASQNINVWLSWYQQRPGNIPKLLIYKASTLHTGVPSRFRGSGSGTGFTLTISSLQPEDIATYYCQQGQSYPLTFGAGTKLELK
As to B2, the equilibrium dissociation constant (Kd) in test [1] turned out to be 120 pM; in test [2] it was 160 pM; in test [5], 340 pM; in test [6], 120 pM. Also, the off-rate (koff) in test [1] was 2.3e-05 s⁻¹; in test [2], 3.7e-05 s⁻¹; in test [3] it was < 1e-05 s⁻¹; in test [4] it was < 1e-05 s⁻¹; in test [5], 6.7e-05 s⁻¹; in test [6] it was 3.3e-05 s⁻¹. Further, the on-rate constant (kon) in test [1] was 190000 M⁻¹ s⁻¹; in test [2], 230000 M⁻¹ s⁻¹; in test [3] it was 230000 M⁻¹ s⁻¹; in test [4] it was 250000 M⁻¹ s⁻¹; in test [5], 200000 M⁻¹ s⁻¹; in test [6], 280000 M⁻¹ s⁻¹.
